Measurements reported in paper doi:10.1101/2021.07.22.453419.
Where two headings read alike, the source gives them in different places.

Tests used:
[1] = molecular target: Papain (E.C.3.4.22.2, from papaya latex) (papaya) (UniProt P00784)
[2] = molecular target: Papain (E.C.3.4.22.2, from papaya latex) (papaya) (UniProt P00784); conditions: natural protein
[3] = molecular target: Papain (E.C.3.4.22.2, from papaya latex) (papaya) (UniProt P00784); remark: listed apart in the source
[4] = molecular target: Papain (E.C.3.4.22.2, from papaya latex) (papaya) (UniProt P00784); remark: listed apart in the source
[5] = molecular target: Papain (E.C.3.4.22.2, from papaya latex) (papaya) (UniProt P00784); conditions: natural protein; remark: listed apart in the source
[6] = molecular target: Papain (E.C.3.4.22.2, from papaya latex) (papaya) (UniProt P00784); assay: enzyme inhibition kinetics
[7] = molecular target: Papain (E.C.3.4.22.2, from papaya latex) (papaya) (UniProt P00784); conditions: natural protein; remark: listed apart in the source
[8] = molecular target: Papain (E.C.3.4.22.2, from papaya latex) (papaya) (UniProt P00784); remark: listed apart in the source
[9] = molecular target: Papain (E.C.3.4.22.2, from papaya latex) (papaya) (UniProt P00784); remark: listed apart in the source
[10] = molecular target: Papain (E.C.3.4.22.2, from papaya latex) (papaya) (UniProt P00784); remark: listed apart in the source
[11] = molecular target: Papain (E.C.3.4.22.2, from papaya latex) (papaya) (UniProt P00784); remark: listed apart in the source
[12] = molecular target: Papain (E.C.3.4.22.2, from papaya latex) (papaya) (UniProt P00784); remark: listed apart in the source
[13] = molecular target: Papain (E.C.3.4.22.2, from papaya latex) (papaya) (UniProt P00784); remark: listed apart in the source
[14] = molecular target: Papain (E.C.3.4.22.2, from papaya latex) (papaya) (UniProt P00784); remark: listed apart in the source
[15] = molecular target: Papain (E.C.3.4.22.2, from papaya latex) (papaya) (UniProt P00784); remark: listed apart in the source

Chain of Papain (E.C.3.4.22.2, from papaya latex) (papaya) (P00784 134-345): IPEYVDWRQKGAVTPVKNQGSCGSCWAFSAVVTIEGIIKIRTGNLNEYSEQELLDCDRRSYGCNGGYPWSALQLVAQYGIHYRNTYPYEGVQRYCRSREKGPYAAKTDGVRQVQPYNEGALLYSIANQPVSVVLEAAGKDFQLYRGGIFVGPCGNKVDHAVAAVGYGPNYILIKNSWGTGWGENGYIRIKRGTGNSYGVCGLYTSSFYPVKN

Substance: TcCYSB
- Ki [1]: 5.6 nM

Substance: cucumber cystatin CsCYS
- Ki [2]: 14.4 nM

Substance: ZmCYSB
- Ki [3]: 4.8 nM

Substance: LjCYS
- Ki [4]: 13.5 nM

Substance: barley cystatin HaCYS3
- Ki [5]: 15.4 nM

Substance: SlCYS8 SE hybrid P-1 (first inhibitory loop of PpCYS)
- Ki (papain), fold smaller than that of SlCYS8 [6]: 7 fold

Substance: Glycine soja GsCYS
- Ki [7]: 4.3 nM

Substance: tomato multicystatin domain SlCYS7 (domain or fragment)
- Ki [6]: 2.7 nM

Substance: Physcomitrella patens C-tailed cystatin domain PpCYS (domain or fragment)
- Ki [6]: 1.2 nM

Substance: SiCYS
- Ki [8]: 5.5 nM

Substance: KsCYS
- Ki [9]: 7.5 nM

Substance: SlCYS8 SE hybrid P-N1 (N-terminal trunk and first inhibitory loop of PpCYS)
- Ki (papain), fold smaller than that of SlCYS8 [6]: 7 fold

Substance: EgCYS
- Ki [10]: 6.4 nM

Substance: JcCYS
- Ki [11]: 7 nM

Substance: SlCYS9
- Ki [12]: 13.3 nM

Substance: ThCYS
- Ki [13]: 14 nM

Substance: MsCYS
- Ki [14]: 7.1 nM

Substance: soybean GmCYSB (natural protein)
- Ki [6]: 38.2 nM

Substance: PsCYS
- Ki [15]: 4.8 nM
